Results on 1 molecule are retold here after patent US20200165323A1 (PANASONIC INTELLECTUAL PROPERTY MANAGEMENT, published 2020).

By Kd is commonly meant a measure of binding affinity in units of concentration.

This experiment has as its target recombinant nucleoprotein (NP) protein derived from influenza virus H1N1 to which a Flag tag was fus (influenza virus H1N1).

Sequence of recombinant nucleoprotein (NP) protein derived from influenza virus H1N1 to which a Flag tag was fus (influenza virus H1N1) (P03466 whole entry): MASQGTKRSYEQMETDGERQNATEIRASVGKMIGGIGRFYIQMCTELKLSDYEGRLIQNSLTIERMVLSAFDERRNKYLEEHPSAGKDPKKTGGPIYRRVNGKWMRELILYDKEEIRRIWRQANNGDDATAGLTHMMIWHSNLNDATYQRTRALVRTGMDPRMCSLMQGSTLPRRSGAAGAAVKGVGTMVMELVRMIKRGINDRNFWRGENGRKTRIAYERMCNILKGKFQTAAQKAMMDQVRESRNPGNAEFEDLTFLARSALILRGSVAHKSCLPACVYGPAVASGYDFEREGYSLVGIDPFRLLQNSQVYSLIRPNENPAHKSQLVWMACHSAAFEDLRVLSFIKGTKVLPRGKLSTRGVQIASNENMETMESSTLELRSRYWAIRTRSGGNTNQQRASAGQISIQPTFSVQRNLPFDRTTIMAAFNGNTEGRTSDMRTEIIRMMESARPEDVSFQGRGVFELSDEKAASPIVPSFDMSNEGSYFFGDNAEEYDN

B1: VHH antibody consisting of the amino acid sequence represented by SEQ ID NO: 8 (VHH)
VHH: QLQLVESGGGLVQAGGSLRLSCAASGSAFSLYAMGWHRQAPGKQRELVAYITNGDITNYADSVQGRVIISRDNAKNTVYLHMNSLKPEDTAVYYCYAVGGRTFWGQGTQVTVSS
With B1, the Kd is 1.09 nM.
